Reference: the supplement of paper PMC10567573

B1: SPATS1 (parent)
chain: GRKKYDIDPRNGIPKLTPGDNPYM

Variants of: B1
Experiment: protein stability index of a GFP-peptide fusion (GPS, HEK-293T) (PSI 1-6); higher = more stable
Settings: c terminus: a fixed tail appended
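Also: lentivirally expressed fusions sorted by FACS into six bins by GFP to DsRed ratio, PSI derived from sequencing read proportions per bin multiplied by bin number.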

| Variant | protein stability index |
| --- | --- |
| GRKKYDIDPRNGIPKLGPGDNPYM [T17G] | 3.48 |
| GRKKYDIDPRNGIPKLAPGDNPYM [T17A] | 3.58 |
| GRKKYDIDPRNGIPKLDPGDNPYM [T17D] | 3.32 |
| GRKKYDIDPRNGIPKLQPGDNPYM [T17Q] | 4.21 |
| GRKKYDIDPRNGIPKLPPGDNPYM [T17P] | 3.23 |
| GRKKYDIDPRNGIPKLMPGDNPYM [T17M] | 3.02 |
| GRKKYDIDPRNGIPKLIPGDNPYM [T17I] | 3.19 |
| GRKKYDIDPRNGIPKLEPGDNPYM [T17E] | 4.33 |
| GRKKYDIDPRNGIPKLVPGDNPYM [T17V] | 3.2 |
| GRKKYDIDPRNGIPKLWPGDNPYM [T17W] | 2.47 |
| GRKKYDIDPRNGIPKLRPGDNPYM [T17R] | 2.95 |
| GRKKYDIDPRNGIPKLFPGDNPYM [T17F] | 2.72 |
| GRKKYDIDPRNGIPKLYPGDNPYM [T17Y] | 2.89 |
| GRKKYDIDPRNGIPKLCPGDNPYM [T17C] | 3.13 |
| GRKKYDIDPRNGIPKLSPGDNPYM [T17S] | 4.08 |
| GRKKYDIDPRNGIPKLTDGDNPYM [P18D] | 3.82 |
| GRKKYDIDPRNGIPKLTFGDNPYM [P18F] | 1.9 |
| GRKKYDIDPRNGIPKLTRGDNPYM [P18R] | 3.24 |
| GRKKYDIDPRNGIPKLTKGDNPYM [P18K] | 3.62 |
| GRKKYDIDPRNGIPKLTTGDNPYM [P18T] | 3.85 |
| GRKKYDIDPRNGIPKLTVGDNPYM [P18V] | 3.34 |
| GRKKYDIDPRNGIPKLTWGDNPYM [P18W] | 2.73 |
| GRKKYDIDPRNGIPKLTGGDNPYM [P18G] | 2.98 |
| GRKKYDIDPRNGIPKLTCGDNPYM [P18C] | 3.38 |

| Variant | protein stability index |
| --- | --- |
| GRKKYDIDPRNGIPKLTNGDNPYM [P18N] | 4.09 |
| GRKKYDIDPRNGIPKLTSGDNPYM [P18S] | 3.55 |
| GRKKYDIDPRNGIPKLTAGDNPYM [P18A] | 3.86 |
| GRKKYDIDPRNGIPKLTIGDNPYM [P18I] | 3.27 |
| GRKKYDIDPRNGIPKLTQGDNPYM [P18Q] | 3.86 |
| GRKKYDIDPRNGIPKLTYGDNPYM [P18Y] | 2.46 |
| GRKKYDIDPRNGIPKLTEGDNPYM [P18E] | 3.92 |
| GRKKYDIDPRNGIPKLTHGDNPYM [P18H] | 3.42 |
| GRKKYDIDPRNGIPKLTLGDNPYM [P18L] | 2.81 |
| GRKKYDIDPRNGIPKLTMGDNPYM [P18M] | 3.18 |
| GRKKYDIDPRNGIPKLTPGDAPYM [N21A] | 3.84 |
| GRKKYDIDPRNGIPKLTPGDMPYM [N21M] | 3.32 |
| GRKKYDIDPRNGIPKLTPGDKPYM [N21K] | 3.51 |
| GRKKYDIDPRNGIPKLTPGDRPYM [N21R] | 3.41 |
| GRKKYDIDPRNGIPKLTPGDSPYM [N21S] | 3.72 |
| GRKKYDIDPRNGIPKLTPGDQPYM [N21Q] | 3.67 |
| GRKKYDIDPRNGIPKLTPGDPPYM [N21P] | 3.54 |
| GRKKYDIDPRNGIPKLTPGDIPYM [N21I] | 3.5 |
| GRKKYDIDPRNGIPKLTPGDEPYM [N21E] | 4.6 |
| GRKKYDIDPRNGIPKLTPGDWPYM [N21W] | 2.63 |
| GRKKYDIDPRNGIPKLTPGDYPYM [N21Y] | 3.06 |
| GRKKYDIDPRNGIPKLTPGDCPYM [N21C] | 3.34 |
| GRKKYDIDPRNGIPKLTPGDGPYM [N21G] | 3.96 |
| GRKKYDIDPRNGIPKLTPGDVPYM [N21V] | 3.14 |

| Variant | protein stability index |
| --- | --- |
| GRKKYDIDPRNGIPKLTPGDFPYM [N21F] | 2.78 |
| GRKKYDIDPRNGIPKLTPGDLPYM [N21L] | 2.88 |
| GRKKYDIDPRNGIPKLTPGDDPYM [N21D] | 4.23 |
| GRKKYDIDPRNGIPKLTPGDTPYM [N21T] | 3.46 |
| GRKKYDIDPRNGIPKLTPGDHPYM [N21H] | 3.33 |
| GRKKYDIDPRNGIPRLTPGDNPYM [K15R] | 3.63 |
| GRKKYDIDPRNGIPDLTPGDNPYM [K15D] | 3.88 |
| GRKKYDIDPRNGIPNLTPGDNPYM [K15N] | 3.49 |
| GRKKYDIDPRNGIPHLTPGDNPYM [K15H] | 3.55 |
| GRKKYDIDPRNGIPELTPGDNPYM [K15E] | 4.33 |
| GRKKYDIDPRNGIPYLTPGDNPYM [K15Y] | 2.96 |
| GRKKYDIDPRNGIPCLTPGDNPYM [K15C] | 3.04 |
| GRKKYDIDPRNGIPSLTPGDNPYM [K15S] | 3.69 |
| GRKKYDIDPRNGIPGLTPGDNPYM [K15G] | 2.81 |
| GRKKYDIDPRNGIPILTPGDNPYM [K15I] | 3.69 |
| GRKKYDIDPRNGIPLLTPGDNPYM [K15L] | 3.29 |
| GRKKYDIDPRNGIPWLTPGDNPYM [K15W] | 1.98 |
| GRKKYDIDPRNGIPVLTPGDNPYM [K15V] | 3.29 |
| GRKKYDIDPRNGIPALTPGDNPYM [K15A] | 3.64 |
| GRKKYDIDPRNGIPMLTPGDNPYM [K15M] | 3.69 |
| GRKKYDIDPRNGIPFLTPGDNPYM [K15F] | 2.97 |
| GRKKYDIDPRNGIPPLTPGDNPYM [K15P] | 3.62 |
| GRKKYDIDPRNGIPQLTPGDNPYM [K15Q] | 4.05 |
| GRKKYDIDPRNGIPTLTPGDNPYM [K15T] | 3.78 |

| Variant | protein stability index |
| --- | --- |
| GRKKYDIDPRNGIPKCTPGDNPYM [L16C] | 3.44 |
| GRKKYDIDPRNGIPKMTPGDNPYM [L16M] | 3.67 |
| GRKKYDIDPRNGIPKGTPGDNPYM [L16G] | 4 |
| GRKKYDIDPRNGIPKHTPGDNPYM [L16H] | 3.75 |
| GRKKYDIDPRNGIPKVTPGDNPYM [L16V] | 4 |
| GRKKYDIDPRNGIPKKTPGDNPYM [L16K] | 3.53 |
| GRKKYDIDPRNGIPKNTPGDNPYM [L16N] | 4.24 |
| GRKKYDIDPRNGIPKQTPGDNPYM [L16Q] | 4.08 |
| GRKKYDIDPRNGIPKFTPGDNPYM [L16F] | 3.11 |
| GRKKYDIDPRNGIPKWTPGDNPYM [L16W] | 2.67 |
| GRKKYDIDPRNGIPKTTPGDNPYM [L16T] | 3.98 |
| GRKKYDIDPRNGIPKYTPGDNPYM [L16Y] | 3.22 |
| GRKKYDIDPRNGIPKATPGDNPYM [L16A] | 4.09 |
| GRKKYDIDPRNGIPKSTPGDNPYM [L16S] | 3.67 |
| GRKKYDIDPRNGIPKETPGDNPYM [L16E] | 4.32 |
| GRKKYDIDPRNGIPKRTPGDNPYM [L16R] | 3.59 |
| GRKKYDIDPRNGIPKITPGDNPYM [L16I] | 3.47 |
| GRKKYDIDPRNGIPKPTPGDNPYM [L16P] | 3.67 |
| GRKKYDIDPRNGIPKDTPGDNPYM [L16D] | 4.11 |
| GRKKYDIDPRNGYPKLTPGDNPYM [I13Y] | 2.81 |
| GRKKYDIDPRNGWPKLTPGDNPYM [I13W] | 3.44 |
| GRKKYDIDPRNGVPKLTPGDNPYM [I13V] | 3.82 |
